Measured values: patent publication US20110189205A1 (UNIVERSITY OF ROCHESTER, published 2011)
No end group written: not given here. Alexa488 = Alexa488 dye (single fluorescent dye molecule)

Target: T1, CGRP receptor on rat CNS1 glioma cells (rat, UniProt Q63118 24-464; Q9JJ74 27-148)
T1 construct: whole, on cells; Endogenous receptor; also called CGRP receptors of CNS1 glioma cells
Test: fluorescence microscopy, 30 nM FL-CGRP on CNS1 cells
Experimental: FIG. 13 is a panel of microscopy images illustrating that FL-CGRP binds to CNS1 glioma cells. CNS1 cells were incubated with 30 nM FL-CGRP for 30 minutes, and imaged using phase-contrast microscopy (right, upper and lower panels) and fluorescent microscopy for FL-CGRP (left, upper and lower panels).

T1 sequence (Q63118 24-464, chain 1 of 2): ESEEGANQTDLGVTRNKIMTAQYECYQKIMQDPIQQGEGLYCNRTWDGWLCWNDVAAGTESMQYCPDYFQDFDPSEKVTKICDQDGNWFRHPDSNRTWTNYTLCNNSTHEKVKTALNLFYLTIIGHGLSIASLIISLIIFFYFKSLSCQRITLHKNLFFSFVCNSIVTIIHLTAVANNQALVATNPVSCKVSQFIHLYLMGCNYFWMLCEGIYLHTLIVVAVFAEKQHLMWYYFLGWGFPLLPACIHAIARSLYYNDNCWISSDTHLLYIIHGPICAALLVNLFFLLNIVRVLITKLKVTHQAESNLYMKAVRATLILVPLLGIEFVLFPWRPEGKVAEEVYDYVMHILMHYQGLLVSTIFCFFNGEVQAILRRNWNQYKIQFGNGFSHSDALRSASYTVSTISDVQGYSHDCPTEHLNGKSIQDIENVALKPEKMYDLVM
T1 sequence (Q9JJ74 27-148, chain 2 of 2): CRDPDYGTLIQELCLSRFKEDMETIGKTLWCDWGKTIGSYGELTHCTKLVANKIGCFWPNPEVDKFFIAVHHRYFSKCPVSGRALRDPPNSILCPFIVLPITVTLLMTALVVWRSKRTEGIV

B1: fluorescently-labeled CGRP (FL-CGRP): rat CGRP with a single Alexa488 dye on lysine 24 (peptide, UniProt P01256 83-119, looked up)
peptide: SCNTATCVTHRLAGLLSRSGGVVK(Alexa488)DNFVPTNVGSEAF
modifications: ends and bridges not checked
notes: mature; the peptide itself is the mature 37-mer; also called single-labeled FL-CGRP
Does B1 bind?
Result: binds
